According to publication PMC5821942, “Crystal structure of IspF from Bacillus subtilis and absence of protein complex assembly amongst IspD/IspE/IspF enzymes in the MEP pathway” (Bioscience Reports, 2018):

Assays:
[1] = biological target: the molecule itself; test: SEC; Superdex75 10/300 GL; single B. subtilis proteins and triple mixture (0.2 mg each, 250 μl); 100 mM NaCl, 25 mM Tris/HCl pH 8.0; 1 mM MgCl2, 1 mM MEP, 1 mM CTP if IspD present; 30°C 30 min
[2] = biological target: the molecule itself; test: SEC; Superdex200 10/300 GL; single E. coli proteins and triple mixture (0.2 mg each, 250 μl); 100 mM NaCl, 25 mM Tris/HCl pH 8.0; 1 mM MgCl2, 1 mM MEP, 1 mM CTP if IspD present; 30°C 30 min
[3] = biological target: the molecule itself; test: crystal structure; BsIspF native and with CMP, space group P2(1), six monomers in the asymmetric unit, 1.99 Å

B1: 2-C-Methyl-D-erythritol-4-phosphate cytidyltransferase (IspD) from Bacillus subtilis (enzyme, Bacillus subtilis 168, UniProt Q06755 1-232, looked up)
chain: MSYDVVIPAAGQGKRMKAGRNKLFIELKGDPVIIHTLRVFDSHRQCDKIILVINEQEREHFQQLLSDYPFQTSIELVAGGDERQHSVYKGLKAVKQEKIVLVHDGARPFIKHEQIDELIAEAEQTGAAILAVPVKDTIKRVQDLQVSETIERSSLWAVQTPQAFRLSLLMKAHAEAERKGFLGTDDASLVEQMEGGSVRVVEGSYTNIKLTTPDDLTSAEAIMESESGNKHV
notes: IspD of B. subtilis 168 (DSM 23778); ispD gene amplified from genomic DNA, ~699 bp product, cloned BamHI/XhoI into pGEX-6P-1; GST removed by PreScission protease; also called BsIspD; source: E. coli DH5α (pGEX-6P-1), purified (Glutathione Sepharose 4 Fast Flow, Resource Q, Superdex 75)
[1]
  stoichiometry N: 2

B2: 2-C-Methyl-D-erythritol 2,4-cyclodiphosphate synthase (IspF) from Escherichia coli (enzyme, Escherichia coli K12, UniProt P62617 1-159, looked up)
chain: MRIGHGFDVHAFGGEGPIIIGGVRIPYEKGLLAHSDGDVALHALTDALLGAAALGDIGKLFPDTDPAFKGADSRELLREAWRRIQAKGYTLGNVDVTIIAQAPKMLPHIPQMRVFIAEDLGCHMDDVNVKATTTEKLGFTGRGEGIACEAVALLIKATK
notes: IspF of E. coli K12; ispF gene PCR amplified and inserted into pET-22b; histidine tag removed by thrombin; also called EcIspF; source: E. coli BL21 (DE3) (pET-22b), purified (Ni-NTA, Resource Q, Superdex 75); not shown: His6, C-terminal, cleaved
[2]
  stoichiometry N: 3

B3: 2-C-Methyl-D-erythritol 2,4-cyclodiphosphate synthase (IspF) from Bacillus subtilis (enzyme, Bacillus subtilis 168)
chain: MFRIGQGFDVHQLVEGRPLIIGGIEIPYEKGLLGHSDADVLLHTVADACLGAVGEGDIGKHFPDTDPEFKDADSFKLLQHVWGIVKQKGYVLGNIDCTIIAQKPKMLPYIEDMRKRIAEGLEADVSQVNVKATTTEKLGFTGRAEGIAAQATVLIQKG
notes: IspF of B. subtilis 168 (DSM 23778); ispF gene amplified from genomic DNA, ~477 bp product, cloned BamHI/XhoI into pGEX-6P-1; GST removed by PreScission protease; also called BsIspF; MEcDP synthase; source: E. coli DH5α (pGEX-6P-1), purified (Glutathione Sepharose 4 Fast Flow, Resource Q, Superdex 75)
[3]
  stoichiometry N: 3

B4: 2-C-Methyl-D-erythritol-4-phosphate cytidyltransferase (IspD) from Escherichia coli (enzyme, Escherichia coli K12, UniProt Q46893 1-236, looked up)
chain: MATTHLDVCAVVPAAGFGRRMQTECPKQYLSIGNQTILEHSVHALLAHPRVKRVVIAISPGDSRFAQLPLANHPQITVVDGGDERADSVLAGLKAAGDAQWVLVHDAARPCLHQDDLARLLALSETSRTGGILAAPVRDTMKRAEPGKNAIAHTVDRNGLWHALTPQFFPRELLHDCLTRALNEGATITDEASALEYCGFHPQLVEGRADNIKVTRPEDLALAEFYLTRTIHQENT
notes: IspD of E. coli K12; ispD gene PCR amplified and inserted into pET-22b; histidine tag removed by thrombin; also called EcIspD; source: E. coli BL21 (DE3) (pET-22b), purified (Ni-NTA, Resource Q, Superdex 75); not shown: His6, C-terminal, cleaved
[2]
  stoichiometry N: 2
